From paper PMC5339705, “OGG1-DNA interactions facilitate NF-κB binding to DNA targets”

B1: κB2-G6 (dsDNA)
DNA 1: TGAGGGGACCCTGAGCTCAGGGAATTTCCCTGG
DNA 2: CCAGGGAAATTCCCTGAGCTCAGGGTCCCCTCA
modifications: 8-oxoG at strand 2 position 23 (opposite C11 of strand 1)
B2: κB2-Wt (dsDNA)
DNA 1: B1 DNA 1
DNA 2: B1 DNA 2

What was measured:
p50 (NF-kB1) [1] = biological target: T1, p50 (NF-kB1) (UniProt P19838 1-433); assay: EMSA; p50 alone; mildly enhanced by 1 ng OGG1; 10 mM Tris-HCl pH 8.0, 5 mM NaCl, 1 mM EDTA, 1 mM DTT, 0.1 mg/ml BSA, 0.1 µg/µl poly(dI-dC) (stated for NE reactions), 10 fmol probe, 10 µl, RT 5-10 min; 6% gel 0.5x TBE 4 °C; details: protein: commercial; chain copies: 2; label: 5' biotin on strand 2; blunt
p65 (RelA) = p65 (RelA) (UniProt Q04206 1-551); assay: EMSA; 15 ng p65 (also 7.5 ng series) with OGG1; 10 mM Tris-HCl pH 8.0, 5 mM NaCl, 1 mM EDTA, 1 mM DTT, 0.1 mg/ml BSA, 0.1 µg/µl poly(dI-dC) (stated for NE reactions), 10 fmol probe, 10 µl, RT 5-10 min; 6% gel 0.5x TBE 4 °C; details: protein: commercial; chain copies: 2; label: 5' biotin on strand 2; blunt
OGG1 = OGG1 (UniProt O15527 1-345); assay: EMSA; OGG1 alone; more complex when NF-kB present; 10 mM Tris-HCl pH 8.0, 5 mM NaCl, 1 mM EDTA, 1 mM DTT, 0.1 mg/ml BSA, 0.1 µg/µl poly(dI-dC) (stated for NE reactions), 10 fmol probe, 10 µl, RT 5-10 min; 6% gel 0.5x TBE 4 °C; details: protein: commercial; label: 5' biotin on strand 2; blunt
p50 (NF-kB1) [2] = biological target: T1, p50 (NF-kB1); assay: EMSA; homodimer formed in p65/p50 mix, no OGG1; from 1 min; 10 mM Tris-HCl pH 8.0, 5 mM NaCl, 1 mM EDTA, 1 mM DTT, 0.1 mg/ml BSA, 0.1 µg/µl poly(dI-dC) (stated for NE reactions), 10 fmol probe, 10 µl, RT 5-10 min; 6% gel 0.5x TBE 4 °C; details: protein: commercial; chain copies: 2; label: 5' biotin on strand 2; blunt

T1 sequence (P19838 1-433): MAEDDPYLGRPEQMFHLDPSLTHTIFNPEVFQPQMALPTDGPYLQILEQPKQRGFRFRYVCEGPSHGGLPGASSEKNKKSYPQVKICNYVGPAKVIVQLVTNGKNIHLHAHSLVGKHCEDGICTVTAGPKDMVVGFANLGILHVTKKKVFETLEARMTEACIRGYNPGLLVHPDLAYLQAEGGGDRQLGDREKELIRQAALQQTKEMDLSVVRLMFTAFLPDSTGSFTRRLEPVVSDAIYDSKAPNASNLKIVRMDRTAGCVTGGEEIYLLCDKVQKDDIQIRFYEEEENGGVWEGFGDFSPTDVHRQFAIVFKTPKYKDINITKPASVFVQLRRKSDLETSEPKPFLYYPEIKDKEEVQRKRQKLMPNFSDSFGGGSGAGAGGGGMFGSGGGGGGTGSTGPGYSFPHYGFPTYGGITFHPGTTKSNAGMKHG
Chain of p65 (RelA) (Q04206 whole entry): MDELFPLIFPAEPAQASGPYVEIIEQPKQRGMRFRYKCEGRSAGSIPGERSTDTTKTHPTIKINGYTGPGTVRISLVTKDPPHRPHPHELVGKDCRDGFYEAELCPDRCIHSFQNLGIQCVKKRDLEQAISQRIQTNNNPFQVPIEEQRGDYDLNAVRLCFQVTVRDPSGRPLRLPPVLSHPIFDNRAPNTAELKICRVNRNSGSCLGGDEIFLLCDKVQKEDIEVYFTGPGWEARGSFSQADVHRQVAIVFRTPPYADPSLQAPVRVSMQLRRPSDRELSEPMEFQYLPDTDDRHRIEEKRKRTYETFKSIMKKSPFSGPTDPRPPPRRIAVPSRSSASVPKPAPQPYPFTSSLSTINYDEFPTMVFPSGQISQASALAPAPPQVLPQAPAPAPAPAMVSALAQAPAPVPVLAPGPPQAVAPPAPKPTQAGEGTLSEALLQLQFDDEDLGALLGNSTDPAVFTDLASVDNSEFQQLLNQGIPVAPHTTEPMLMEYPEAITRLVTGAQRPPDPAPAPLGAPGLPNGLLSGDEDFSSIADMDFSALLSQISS
Chain of OGG1 (O15527 whole entry): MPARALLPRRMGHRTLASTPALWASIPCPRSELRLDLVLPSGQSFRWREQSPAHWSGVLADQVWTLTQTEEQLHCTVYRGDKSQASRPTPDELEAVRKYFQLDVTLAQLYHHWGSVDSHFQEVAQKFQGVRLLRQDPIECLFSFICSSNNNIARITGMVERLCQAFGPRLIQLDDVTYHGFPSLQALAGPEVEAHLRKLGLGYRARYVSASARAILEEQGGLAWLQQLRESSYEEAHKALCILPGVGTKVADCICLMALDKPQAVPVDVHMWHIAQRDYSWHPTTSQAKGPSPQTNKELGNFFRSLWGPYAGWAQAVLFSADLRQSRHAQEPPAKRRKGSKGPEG

Binder | binding result (p50 (NF-kB1) [1]) | binding signal (p65 (RelA)) [fold vs p65 alone] | binding result (OGG1) | binding result (p50 (NF-kB1) [2])
B1 | binds | > 10 | binds | 
B2 |  |  |  | binds
